B1: SC04-374 (scFv)
scFv: QVTLKESGPTLVKPTQTLTLTCTFSGFSLSTSGVGVGWIRQPPGKALEWLAVIYWNDDKLYRPSLKSRLTITKDTSKNQVVLTMTKMDPVDTATYYCAHRHRYYDISGYYRLFSDAFDIWGQGTMVTVSSGTGGSGGTGSGTGGSTQSVVTQPPSVSGAPGQRVTISCTGSSSNIGAGYDVHWYQQLPGTAPKLLIYGNSNRPSGVPDRFSGSKSGTSASLAITGLQAEDEADYYCQSYDSSLSGSVFGGGTKLTVLG
B2: SC04-361 (scFv)
scFv: EVQLVQSGAEVKKPGESLKISCKASGFSFSTYWIGWVRQMPGKGLEWMGIIYPADSDTRYSPSFQGQVTISADKSISTAYLQWSSLKASDTAMYYCARLRGPYYDFWNGYRETHDAFNVWGQGTMVTVSSGTGGSGGTGSGTGGSTDVVMTQSPDSLAVSLGERATINCKSSQNILDNSDNKNFLAWYQQKPGQPPKLLIYWASARESGVPDRFSGSGSGTDFTLTISSLQAEDVALYYCQQYYNTPITFGQGTRLEIKR
B3: SC04-353 (scFv)
scFv: EVQLVQSGGGVVQPGRSLRLSCAASGFTFSNYAMHWVRQAPGKGLEWVAVISYDGGNKYYADSVKGRFTMSRDNSKNTLYLQMNSLRAEDTAVYYCARDFWSGYSMVDSYYYYMDVWGKGTTVTVSSGTGGSGGTGSGTGGSTETTLTQSPGTLSLSPGERATLSCRASQSVSNTFLAWYQQKPGQAPRLLIYGASSRATGIPDRFSGSGSGTDFTLTISRLEPEDFAAYYCQQYGSSLTFGPGTKVDIKR

The target of this test is whole inactivated rabies virus. The test can be described thus: phage ELISA, coated whole inactivated rabies virus.
On to B1, for which the OD 492 nm is 0.056 OD 492 nm. As for B2, the figure is 0.059 OD 492 nm. As for B3, the figure is 0.057 OD 492 nm.

The record behind these values is US7244430.
